Measurements taken from publication PMC3048587 (Biochemistry, 2011).

Biological target: Rac W56F mutant (UniProt P63000 1-192, W56F)
Test: cell-based or functional assay

Mant-GDP nucleotide exchange (GEF activity of DHR-2c), relative to wild-type Rac: < 10 % of the level of wild-type Rac
B1: Dock180^DHR-2c (C-terminus of DHR-2 in Dock180, residues 1335-1657) (domain or fragment)
chain: KPDYFAVGYYGQGFPTFLRGKVFIYRGKEYERREDFEARLLTQFPNAEKMKTTSPPGDDIKNSPGQYIQCFTVKPKLDLPPKFHRPVSEQIVSFYRVNEVQRFEYSRPIRKGEKNPDNEFANMWIERTIYTTAYKLPGILRWFEVKSVFMVEISPLENAIETMQLTNDKINSMVQQHLDDPSLPINPLSMLLNGIVDPAVMGGFANYEKAFFTDRYLQEHPEAHEKIEKLKDLIAWQIPFLAEGIRIHGDKVTEALRPFHERMEACFKQLKEKVEKEYGVRIMPSSLDDRRGSRPRSMVRSFTMPSSSRPLSVASVSSLSSDS
